Consider one molecule from US7919091B2, “Lipolysis stimulated receptor (LSR) specific antibodies” (Serono Genetics Institute S.A., priority 1997, dated 2011).

Data set [1] can be described thus: Clearance of 125I-leptin in mice. Format: in vivo. Here is the method: The female control, ob/ob, or db/db mice (6-8 weeks), on an empty stomach, are anaesthetized and receive via the saphenous vein an injection of 80 ng of murine recombinant ^125I-leptin or of ^125I-β2-microglobulin (Sigma, labelled by the Iodobeads method, like leptin). Five minutes later, the animals are infused with a physiological saline solution (15 ml, at 4° C.). The tissues are collected and counted for their radioactivity (Gamma counter). In some cases, an anti-LSR antibody or a control protein are injected 30 minutes after injection of ^125I-leptin. It is important to note that the labelling of leptin with ^125I has no effect on its biological activity.

A further data set has as its target T1, LSR (Homo sapiens, UniProt Q86X29).
T1 construct: GM00486A, GM007001B, GM00488C; host or cells: human skin fibroblasts, normal or HF (familial hypercholesterolemia, LDL-receptor deficient)
T1 sequence (Q86X29 1-649) 1: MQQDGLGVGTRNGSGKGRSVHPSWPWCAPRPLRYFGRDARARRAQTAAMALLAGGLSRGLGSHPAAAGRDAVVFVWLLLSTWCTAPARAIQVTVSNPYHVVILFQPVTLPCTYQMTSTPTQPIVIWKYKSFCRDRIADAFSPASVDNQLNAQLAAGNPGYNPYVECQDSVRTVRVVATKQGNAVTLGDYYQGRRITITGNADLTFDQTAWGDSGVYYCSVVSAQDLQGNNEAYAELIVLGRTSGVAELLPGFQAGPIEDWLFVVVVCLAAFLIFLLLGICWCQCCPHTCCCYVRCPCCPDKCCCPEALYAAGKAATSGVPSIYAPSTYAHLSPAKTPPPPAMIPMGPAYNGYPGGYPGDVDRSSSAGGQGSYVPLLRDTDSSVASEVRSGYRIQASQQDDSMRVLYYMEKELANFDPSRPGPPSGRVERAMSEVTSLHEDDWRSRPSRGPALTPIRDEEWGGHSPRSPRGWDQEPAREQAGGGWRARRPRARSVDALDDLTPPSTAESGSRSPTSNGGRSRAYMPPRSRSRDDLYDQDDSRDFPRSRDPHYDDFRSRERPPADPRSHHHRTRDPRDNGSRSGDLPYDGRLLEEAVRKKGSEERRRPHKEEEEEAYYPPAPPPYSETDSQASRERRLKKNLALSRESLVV
T1 sequence (Q86X29 1-649) 2: T1 sequence (Q86X29 1-649) 1
The data set can be described thus: Effect of leptin on the LSR activity of human fibroblasts HF. As to conditions: incubation with increasing leptin, 50 μg/ml 125I-LDL, 500 μM oleate. Format: cell-based. The protocol:
The fibroblasts HF are incubated for 30 minutes at 37° C. with increasing concentrations of leptin, and then for 2 hours at 37° C. with 50 μg/ml of ^125I-LDL, in the presence of 500 μM oleate. The binding, internalization and degradation of the LDLs are measured as indicated in Example 1.

B1: leptin: mouse recombinant leptin with hexahistidine end, expressed in E. coli (protein, UniProt P41160 22-167, looked up)
Leptin: VPIQKVQDDTKTLIKTIVTRINDISHTQSVSAKQRVTGLDFIPGLHPILSLSKMDQTLAVYQQVLTSLPSQNVLQIANDLENLRDLLHLLAFSKSCSLPQTSGLQKPESLDGVLEASLYSTEVVALSRLQGSLQDILQQLDVSPEC
modifications: hexahistidine tag
notes: mouse recombinant leptin with hexahistidine end, expressed in E. coli
Consider B1, for which, in data set [1] (between control, ob/ob and db/db lines, 5 minutes after injection), the “renal capture of leptin” value is listed as “no difference”. For the same molecule, in data set [1] (obese (ob/ob, db/db) mice compared with control mice, 5 minutes after injection), the “quantity of leptin selectively captured by the liver” value is “reduced”. Further, the speed of clearance entry in data set [1] (radiolabelled recombinant leptin, obese and control mice) is recorded as “rapid speed of clearance”. For the same molecule, the “injected dose found in liver and kidney” value in data set [1] (radiolabelled recombinant leptin, obese and control mice, after 10 minutes) came to 50%. Further, the “LSR activity of human fibroblasts HF” value with LSR is recorded as “increased”.
